Reference: patent publication US20230002496A1 (STAIDSON BEIJING BIOPHARMACEUTICALS, published 2023)
Numbering of substitutions follows the chain as printed. Where two headings read alike, the source gives them in different places. One block for each binder: values may come before it.

Legend:
[1] = target: T1, human GM-CSFRα, full length on cells (human, UniProt P15509 23-400); assay: cell-based or functional assay
T1 sequence: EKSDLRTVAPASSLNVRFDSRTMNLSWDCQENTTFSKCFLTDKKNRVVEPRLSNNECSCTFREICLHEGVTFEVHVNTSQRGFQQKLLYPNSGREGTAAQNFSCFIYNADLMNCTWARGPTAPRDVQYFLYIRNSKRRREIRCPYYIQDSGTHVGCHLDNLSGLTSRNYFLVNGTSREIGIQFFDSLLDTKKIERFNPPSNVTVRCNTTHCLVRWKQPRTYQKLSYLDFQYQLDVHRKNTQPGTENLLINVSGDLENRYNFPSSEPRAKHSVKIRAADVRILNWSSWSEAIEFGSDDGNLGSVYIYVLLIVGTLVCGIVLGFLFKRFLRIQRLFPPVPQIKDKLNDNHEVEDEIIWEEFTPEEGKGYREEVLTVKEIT

[2] = target: T1, human GM-CSFRα, full length on cells; assay: cell-based or functional assay; remark: listed apart in the source

- IC50, TF-1 cell proliferation [2]: 0.156 µg/mL
B3: E35-scFv LS31M (scFv, V domains shown)
VH: QMQLVQSGAEVKKPGASVKVSCKVSGYTLTELSIHWVRQAPGKGLEWMGGFDPEDGETIYAQKFQGRVTMTGDTSTDTAYLELSSLRSEDTALYYCATGRYTSLATTYGFDYWGQGTLVTVSS
VL: EIVMTQSPATLSLSPGERATLSCRASQSVSMYLAWYQQKPGQAPRLLIYGASSRATGIPDRFSGSGSGTDFTLTISRLEPEDFAVYYCQQYDNWPYTFGQGTKLEIK

- IC50, TF-1 cell proliferation [2]: 0.117 µg/mL
B5: E35-scFv LS31Q (scFv, V domains shown)
VH: B3 VH
VL: B3 VL with M31Q

- IC50, TF-1 cell proliferation [2]: 0.139 µg/mL
B6: E35-scFv LS31P (scFv, V domains shown)
VH: B3 VH
VL: B3 VL with M31P

- IC50, TF-1 cell proliferation [2]: 0.106 µg/mL
B10: E35-scFv LS31H (scFv, V domains shown)
VH: B3 VH
VL: B3 VL with M31H

- IC50, TF-1 cell proliferation [2]: 0.06 µg/mL
B13: E35-scFv LS31T (scFv, V domains shown)
VH: B3 VH
VL: B3 VL with M31T

- IC50, TF-1 cell proliferation [2]: 0.069 µg/mL
B15: E35-scFv LS31R (scFv, V domains shown)
VH: B3 VH
VL: B3 VL with M31R

Second part, the binder before the results:

B1: E35-VL93D-IG4 (antibody, IgG4, V domains shown)
VH: B3 VH
VL: B3 VL with M31S, N93D
- IC50, TF-1 cell proliferation [1]: 0.0371 µg/mL

B2: E35-VH28H-VL30L-IG4 (antibody, IgG4, V domains shown)
VH: B3 VH with T28H
VL: B3 VL with S30L, M31S
- IC50, TF-1 cell proliferation [1]: 0.0296 µg/mL

B4: E35-VH28H-VL30L-93D-IG4 (antibody, IgG4, V domains shown)
VH: B3 VH with T28H
VL: B3 VL with S30L, M31S, N93D
- IC50, TF-1 cell proliferation [1]: 0.0241 µg/mL

B7: E35-VH28E-VL30C-IG4 (antibody, IgG4, V domains shown)
VH: B3 VH with T28E
VL: B3 VL with S30C, M31S
- IC50, TF-1 cell proliferation [1]: 0.0208 µg/mL

B8: E35-VH28H-VL93L-IG4 (antibody, IgG4, V domains shown)
VH: B3 VH with T28H
VL: B3 VL with M31S, N93L
- IC50, TF-1 cell proliferation [1]: 0.0163 µg/mL

B9: E35-VH28H-IG4 (antibody, IgG4, V domains shown)
VH: B3 VH with T28H
VL: B3 VL with M31S
- IC50, TF-1 cell proliferation [1]: 0.0569 µg/mL

B11: E35-scFv LS31A (scFv, V domains shown)
VH: B3 VH
VL: B3 VL with M31A
- IC50, TF-1 cell proliferation [2]: 0.078 µg/mL

B12: E35-VH28E-VL30L-IG4 (antibody, IgG4, V domains shown)
VH: B3 VH with T28E
VL: B3 VL with S30L, M31S
- IC50, TF-1 cell proliferation [1]: 0.0268 µg/mL

B14: E35-VH28E-IG4 (antibody, IgG4, V domains shown)
VH: B3 VH with T28E
VL: B3 VL with M31S
- IC50, TF-1 cell proliferation [1]: 0.0307 µg/mL

B16: E35-VH28H-VL30C-IG4 (antibody, IgG4, V domains shown)
VH: B3 VH with T28H
VL: B3 VL with S30C, M31S
- IC50, TF-1 cell proliferation [1]: 0.0431 µg/mL
